± gives the standard deviation of the averaged measurements.

This note sets out measurements from the supplement of paper PMC10201428.

The chains are these.
B1: library; a variant is named by its letters at N, in order (parent)
chain: AATGTTGTTGATGCAACCATAAAGTGATATTTAATAATTATTTATAATCAGCAACTTAACCACAAAACAACCATATATTGATATNTCACAAAACAACCATAANTTGATATTTTTGTGAATCGAGTATTTCAGCAAAACTACTGCAGTAAGAA

The variants in data set [1] derive from B1. The data set is described as follows: relative integration efficiency (T-LR orientation) vs wild-type transposon end (log2 (normalized fold change)); transposon end mutated: left end; higher = more efficient transposition. The settings on record: with VchCAST RNA-guided transposition machinery (E. coli BL21(DE3) host, lacZ target). As for the experimental part:
(§1)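 Pooled, barcoded VchCAST (Tn6677) mini-transposon donor libraries; each variable transposon-end sequence sits in a fixed pDonor mini-transposon context (10-bp barcode and cargo not included). Left- or right-end libraries were co-transformed with pEffector (TniQ-Cascade, TnsABC, lacZ crRNA, T7, 0.1 mM IPTG) into E. coli BL21(DE3) and grown 18 h at 37 C. T-LR and T-RL junction amplicons were sequenced; output/input barcode fold change was normalised to the mean of four wild-type barcodes and log2-transformed. Two biological replicates; zero-count/undetected variants carry floor values (-10 / -15), censored here. Barcode uncoupling by PCR recombination adds noise.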

Variants of B1 are the subject of data set [2]. The data set is described as follows: relative integration efficiency (T-RL orientation) vs wild-type transposon end (log2 (normalized fold change)); transposon end mutated: left end; higher = more efficient transposition. To be noted: with VchCAST RNA-guided transposition machinery (E. coli BL21(DE3) host, lacZ target). As for the experimental part: as §1

Regarding TA A22T G24T T31C A33C A70C T76A T84A C87A A102T T111C T113C, the results for the “relative integration efficiency (log2)” value in data set [1] and in data set [2] were -0.102 ± 0.33 and -0.168 ± 0.35, respectively.

Regarding CC A101T A102T T104A, the results for the “relative integration efficiency (log2)” value in data set [1] and in data set [2] were -0.0376 ± 0.63 and -0.0794 ± 0.32, respectively.

With TA A16C G24T T30A T76A T78A T84A C87A A96C T110A T113A, the “relative integration efficiency (log2)” value in data set [1] is -0.28 ± 0.67; in data set [2], -0.316 ± 0.43.

On to TA A23G G24T A33T T76A A77G C87T T104G T113A, for which the results for the “relative integration efficiency (log2)” value in data set [1] and in data set [2] were 0.309 ± 0.37 and -0.339 ± 0.36, respectively.

With TA A23G G24T A33T T76A T78G C87A T104G T113A, the “relative integration efficiency (log2)” value in data set [1] was 0.453 ± 0.52; in data set [2] it was -0.0355 ± 0.21.

In the case of TA G24A T30A T76A A77G C87T T104G T113A, the entries for the “relative integration efficiency (log2)” value in data set [1] and in data set [2] were 0.395 ± 0.079 and -0.232 ± 0.36, respectively.

Turning to TA A70C T76A T84A C87A T104G T113A, the figures for the “relative integration efficiency (log2)” value in data set [1] and in data set [2] were 0.771 ± 0.098 and 0.69 ± 0.33, respectively.

For the variant TA A22T G24T T31C A33C A70C T76A T84A C87A T104A T110A T113A, the “relative integration efficiency (log2)” value was -0.378 ± 0.91 in data set [1] and -0.553 ± 0.35 in data set [2].

For the variant TG A16C G24T T32G A33C A70C T76A T86G, the “relative integration efficiency (log2)” value in data set [1] was -0.468 ± 0.42; in data set [2], -0.731 ± 0.36.

As for TA A70C T76A T84A C87A A96C T110A T113A, the “relative integration efficiency (log2)” value turned out to be 0.233 ± 0.15 in data set [1] and 0.0312 ± 0.25 in data set [2].

CA G24A T30A A96C T112G T113C: the “relative integration efficiency (log2)” value is 0.199 ± 0.4 in data set [1] and 0.0766 ± 0.11 in data set [2].

CA A96C T110A T113A: the “relative integration efficiency (log2)” value in data set [1] is 0.444 ± 0.43; in data set [2], 0.00902 ± 0.34.

CG A2T T3A: the “relative integration efficiency (log2)” value in data set [1] amounted to 0.399 ± 0.43; in data set [2] it was 0.191 ± 0.092.

In the case of TG A16C G24T T30A T76A A77G C87T, the “relative integration efficiency (log2)” value in data set [1] is -0.0311 ± 0.37; in data set [2], -0.534 ± 0.47.

As for TA G24A T30A T76A T78G C87A A102T T111C T113C, the “relative integration efficiency (log2)” value was -0.298 ± 0.65 in data set [1] and 0.243 ± 0.089 in data set [2].

Regarding CC A102T T104A T105A, the “relative integration efficiency (log2)” value in data set [1] is -0.708 ± 0.07; in data set [2], -0.322 ± 0.48.

Consider CG A16C G24T T32G A33C, for which the results for the “relative integration efficiency (log2)” value in data set [1] and in data set [2] were -0.475 ± 0.83 and -0.332 ± 0.18, respectively.

GG: the “relative integration efficiency (log2)” value was -0.397 ± 0.89 in data set [1] and -0.0172 ± 0.13 in data set [2].

TA A22T G24T T31C A33C T76A T78A T84A C87A A96C T112G T113C: the “relative integration efficiency (log2)” value was -0.159 ± 0.75 in data set [1] and -0.261 ± 0.33 in data set [2].

For the variant CC A22T A23T T76A A77T A102T, the figures for the “relative integration efficiency (log2)” value in data set [1] and in data set [2] were -0.252 ± 0.23 and -0.313 ± 0.27, respectively.

Take TA A16C G24T T30A T76A T78A T84A C87A T104A T110A T113A: the “relative integration efficiency (log2)” value is 0.114 ± 0.83 in data set [1] and -0.0645 ± 0.35 in data set [2].

Take TA T76A A77G C87T A102T T111C T113C: the “relative integration efficiency (log2)” value was -0.406 ± 0.13 in data set [1] and -0.659 ± 0.28 in data set [2].

Take CG A11T T12A: the results for the “relative integration efficiency (log2)” value in data set [1] and in data set [2] were -1.18 ± 0.28 and -0.325 ± 0.19, respectively.

Consider TA T76A A77G C87T A96C T112G T113C, for which the “relative integration efficiency (log2)” value is -0.4 ± 0.34 in data set [1] and -0.203 ± 0.3 in data set [2].

With TA G24A T30A T76A T78A T84A C87A A96C T112G T113C, the “relative integration efficiency (log2)” value in data set [1] turned out to be 0.461 ± 0.4; in data set [2] it was 0.172 ± 0.12.

In the case of TA A16C G24T T30A T76A T78A T84A C87A A96C T112G T113C, the “relative integration efficiency (log2)” value is -0.55 ± 0.9 in data set [1] and -0.0685 ± 0.46 in data set [2].

Turning to TA T76A A77G C87T A96C T110A T113A, the “relative integration efficiency (log2)” value in data set [1] was -0.108 ± 0.52; in data set [2] it was -0.522 ± 0.3.

With CG, the figures for the “relative integration efficiency (log2)” value in data set [1] and in data set [2] were -0.0136 ± 0.21 and -0.00322 ± 0.1, respectively.

Regarding CC, the entries for the “relative integration efficiency (log2)” value in data set [1] and in data set [2] were 0.321 ± 0.75 and -0.0693 ± 0.024, respectively.

In the case of TA G24A T30A A70C T76A T84A C87A T104G T113A, the “relative integration efficiency (log2)” value in data set [1] was found to be 0.182 ± 0.22; in data set [2], 0.0306 ± 0.22.

Regarding TA A23G G24T A33T T76A T78A T84A C87A T104G T113A, the “relative integration efficiency (log2)” value is 0.315 ± 0.39 in data set [1] and -0.265 ± 0.4 in data set [2].

As for CG A15G, the “relative integration efficiency (log2)” value in data set [1] was -0.118 ± 0.26; in data set [2] it was -0.121 ± 0.26.

For the variant CG A15T, the figures for the “relative integration efficiency (log2)” value in data set [1] and in data set [2] were 0.37 ± 0.27 and -0.148 ± 0.14, respectively.

For the variant CG A15C, the “relative integration efficiency (log2)” value in data set [1] is 0.321 ± 0.27; in data set [2] it was 0.0839 ± 0.1.

For the variant TA A23G G24T A33T T76A T78A T84A C87A A96C T112G T113C, the “relative integration efficiency (log2)” value in data set [1] is -0.309 ± 0.24; in data set [2], 0.136 ± 0.2.

For TA A22T G24T T31C A33C A70C T76A T86G A96C T112G T113C, the “relative integration efficiency (log2)” value in data set [1] is -0.771 ± 0.36; in data set [2], -0.328 ± 0.2.

Take TA A16C G24T T30A T76A T78G C87A A102T T111C T113C: the “relative integration efficiency (log2)” value in data set [1] was -0.495 ± 0.48; in data set [2] it was -0.243 ± 0.23.

For CA T104G T113A, the “relative integration efficiency (log2)” value was -0.00439 ± 0.14 in data set [1] and -0.216 ± 0.19 in data set [2].

For CG A16C G24T T30A, the “relative integration efficiency (log2)” value in data set [1] was -0.135 ± 0.14; in data set [2], -0.3 ± 0.21.

As to TG A16C G24T T30A T76A T78G C87A, the “relative integration efficiency (log2)” value in data set [1] is -0.0456 ± 0.17; in data set [2], 0.0194 ± 0.14.

Take CG A15C A16C: the “relative integration efficiency (log2)” value in data set [1] was -0.641 ± 0.48; in data set [2] it was 0.081 ± 0.27.

Consider TA G24A T30A T76A T78G C87A T104A T110A T113A, for which the entries for the “relative integration efficiency (log2)” value in data set [1] and in data set [2] were 0.464 ± 0.53 and -0.242 ± 0.034, respectively.

On to TA A22T G24T T31C A33C T76A T78G C87A A96C T110A T113A, for which the “relative integration efficiency (log2)” value in data set [1] was -0.606 ± 0.66; in data set [2], -0.329 ± 0.25.

In the case of CG A2C T3G, the “relative integration efficiency (log2)” value in data set [1] was 0.286 ± 0.049; in data set [2], -0.0688 ± 0.0099.

Take CC T104A T105A G106C: the “relative integration efficiency (log2)” value is -2.2109 ± 0.0012 in data set [1] and -1.71 ± 0.67 in data set [2].

In the case of TA A22T G24T T31C A33C A70C T76A T86G A102T T111C T113C, the “relative integration efficiency (log2)” value is -0.793 ± 0.32 in data set [1] and -0.813 ± 0.39 in data set [2].

Turning to TA A23G G24T A33T A70C T76A T86G T104A T110A T113A, the results for the “relative integration efficiency (log2)” value in data set [1] and in data set [2] were -0.032 ± 0.14 and -0.568 ± 0.3, respectively.

On to TA A23G G24T A33T A70C T76A T86G A102T T111C T113C, for which the results for the “relative integration efficiency (log2)” value in data set [1] and in data set [2] were -0.846 ± 0.11 and -0.375 ± 0.19, respectively.

Turning to TA A70C T76A T86G A96C T112G T113C, the “relative integration efficiency (log2)” value in data set [1] is 0.367 ± 0.4; in data set [2], -0.132 ± 0.23.

On to TA A16C G24T T30A T76A T78A T84A C87A A102T T111C T113C, for which the “relative integration efficiency (log2)” value is -0.306 ± 1.3 in data set [1] and -0.415 ± 0.32 in data set [2].

In the case of CA A16C G24T T32G A33C A96C T110A T113A, the “relative integration efficiency (log2)” value in data set [1] was -1.02 ± 1.2; in data set [2] it was -0.362 ± 0.31.

For TA A70C T76A T86G A102T T111C T113C, the “relative integration efficiency (log2)” value in data set [1] was -0.561 ± 0.29; in data set [2], -0.418 ± 0.19.

Consider TA A16C G24T T32G A33C T76A T78G C87A A96C T112G T113C, for which the “relative integration efficiency (log2)” value in data set [1] is -0.523 ± 0.65; in data set [2], -0.344 ± 0.18.

On to TG, for which the “relative integration efficiency (log2)” value in data set [1] was found to be 0.322 ± 0.57; in data set [2], 0.126 ± 0.046.

With TA A70C T76A T86G A96C T110A T113A, the “relative integration efficiency (log2)” value in data set [1] was -0.0134 ± 0.035; in data set [2], -0.255 ± 0.15.

As for CG A2C T3G G4T T5G, the “relative integration efficiency (log2)” value in data set [1] is -0.014 ± 0.12; in data set [2] it was -0.514 ± 0.095.

In the case of TA G24A T30A T76A T78A T84A C87A T104G T113A, the entries for the “relative integration efficiency (log2)” value in data set [1] and in data set [2] were 0.368 ± 0.38 and -0.186 ± 0.3, respectively.

For TA T76A T78A T84A C87A A96C T112G T113C, the “relative integration efficiency (log2)” value in data set [1] was -0.207 ± 0.74; in data set [2], 0.00846 ± 0.17.
